Data as given in patent US20230287046A1, “MOLECULES TARGETING PROTEINS” (AELIN THERAPEUTICS, priority 2020, published 2023).
Where no end group is shown, it is not given here.

B1: 04-004-N001 (peptide)
peptide: Ac-KLSVFAIKGSKLSVFAIK-NH2
B2: 04-006-N001 (peptide)
peptide: Ac-KVVVGAVKGSKVVVGAVK-NH2
B3: 04-014-N001 (peptide)
peptide: Ac-KLVVVGAVKGSKLVVVGAVK-NH2
B4: 04-015-N001 (peptide)
peptide: Ac-KVVVGAVGKGSKVVVGAVGK-NH2
B5: 04-033-N001 (peptide)
peptide: Ac-KVVVGAVGVGKGSKVVVGAVGVGK-NH2

Key:
G12V mutant KRAS = target: T1, G12V mutant KRAS (Homo sapiens, UniProt P01116, G12V); assay: In vitro translation assay with streptavidin pull-down, KRAS G12V; type: binding; settings: 10 μM biotinylated pept-in, Western blot
T1 construct: made in house; host or cells: cell-free: PURExpress In Vitro Protein Synthesis Kit (New England Biolabs)
Procedure: (§1) In vitro translation assays were performed using the PURExpress® In Vitro Protein Synthesis Kit (New England Biolabs) according to the manufacturer's instructions. Briefly, linear DNA fragments containing T7 promotor and terminator sequences flanking the KRAS coding sequence were generated using PCR and purified using the MinElute PCR Purification Kit (Qiagen). 250 ng of linear DNA was subsequently used for the in vitro translation reaction, which was performed for 2 hours at 37° C. with shaking (1000 rpm). Indicated biotinylated pept-ins were mixed in the translation reactions from a 5 mM stock solution in 6M Urea to a final concentration of 10 μM. Upon completion of the translation reaction, biotinylated pept-ins were captured from the reaction mix using Streptavidin coated beads (Pierce) during 90 min at room temperature. Beads were next washed with TBS containing 0.1% Tween 20 and bound proteins were finally boiled off in 1×SDS loading dye (Bio-Rad) in TBS buffer. Proteins were resolved using Any kD 15-well Mini-PROTEAN gels (Bio-Rad) during SDS-PAGE and probed for KRAS after Western blotting using a mouse monoclonal KRAS-specific antibody (SC-30, Santa Cruz Biotechnology), which was detected with an HRP-coupled anti-mouse secondary antibody using chemiluminescence on a Bio-Rad Chemidoc MP imaging instrument.
To mimic this in vitro, we devised an in vitro translation setup producing either wild-type or mutant KRAS (G12V, G12C, G12D or G13D) in the presence of biotinylated RAS-targeting pept-ins. This allowed us to perform a streptavidin pull-down to capture the biotinylated pept-ins from the translation reaction and perform SDS-PAGE and Western blotting to probe the pulled-down fraction for the presence of KRAS. The biotinylated version of pept-in 04-004-N001, i.e. 04-004-N011, which harbours an APR window sequence derived from a wild-type APR, is predicted to target all RAS proteins independently from their mutation status.

G12C mutant KRAS = target: T2, G12C mutant KRAS (Homo sapiens, UniProt P01116, G12C); assay: In vitro translation assay with streptavidin pull-down, KRAS G12C; type: binding; settings: 10 μM biotinylated pept-in, Western blot
T2 construct: made in house; host or cells: cell-free: PURExpress In Vitro Protein Synthesis Kit (New England Biolabs)
Procedure: as §1, with “instrument. […]” for “instrument.”

[1] = tested on: SW620 human KRAS G12V colorectal cancer xenograft; assay: In vivo SW620 xenograft model; set-up: species or system mouse; settings: three times per week
Procedure: Female NCr nu/nu mice (8 to 12 weeks) were inoculated with 1×10^6 SW620 tumor cells in 50% Matrigel subcutaneously in the hind flank. The cell Injection Volume was 0.1 mL/mouse. When tumors reached an average size of 100-150 mm^3 a pair match was performed, and treatment started. Group sizes were N=6 for the non-treated group, N=5 for the vehicle groups and N=8 for the pept-in and positive control groups. Tumor growth was monitored by caliper measurement twice per week. Model response was monitored by Irinotecan dosed once per week at 100 mg/kg intraperitoneally for 3 weeks.
To assess whether the RAS-targeting pept-ins are able to attenuate growth of KRAS G12V-driven tumors in vivo, a subcutaneous xenograft model of human KRAS G12V colorectal cancer (SW620) was used. Once the tumors reached 100-150 mm^3 in size, pept-ins were administered directly into the tumor mass by intratumoral injection three times per week during two weeks at two different doses (20 μg and 200 μg).

[2] = target: T3, KRAS of NCI-H441 lung adenocarcinoma cells (KRAS G12V mutant) (human, UniProt P01116 1-186); assay: cell-based or functional assay
[3] = target: T3, KRAS of NCI-H441 lung adenocarcinoma …; assay: cell-based or functional assay; remark: listed apart in the source

Row | Molecule | pull-down of KRAS G12V (G12V mutant KRAS) | IC50 on viability of adherently growing NCI-H441 cells (CellTiter Glo, 3 days) [2] [µM] | Normalized viability NCI-H441 4 days of exposure to 25 µM (%) [3] [%] | further results
1 | 04-006-N007: biotinylated version of a biologically active pept-in harbouring an APR window containing the G12V mutant site (04-006 series) (KVVVGAVKGSKVVVGAVK; also: biotinylated version) | notable pull-down was only observed for the G12V mutant KRAS | – | – | –
2 | 04-015-N026: biotinylated version of a biologically active pept-in harbouring an APR window containing the G12V mutant site (04-015 series) (KVVVGAVGKGSKVVVGAVGK; also: biotinylated version) | notable pull-down | – | – | pull-down of KRAS G12C (G12C mutant KRAS): notable pull-down
3 | 04-033-N003: biotinylated version of a biologically active pept-in harbouring an APR window containing the G12V mutant site (04-033 series) (KVVVGAVGVGKGSKVVVGAVGVGK; also: biotinylated version) | notable pull-down was only observed for the G12V mutant KRAS | – | – | –
4 | CC(=O)N[C@@H](CCCCN)C(=O)N[C@H](C(=O)N[C@H](C(=O)N[C@H](C(=O)NCC(=O)N[C@@H](C)C(=O)N[C@H](C(=O)NCC(=O)N[C@@H](CCCCN)C(=O)NCC(=O)N[C@@H](CO)C(=O)N[C@@H](CCCCN)C(=O)N[C@H](C(=O)N[C@H](C(=O)N[C@H](C(=O)NCC(=O)N[C@@H](C)C(=O)N[C@H](C(=O)NCC(=O)N[C@@H](CCCCN)C(N)=O)C(C)C)C(C)C)C(C)C)C(C)C)C(C)C)C(C)C)C(C)C)C(C)C [04-015-N001] | – | – | – | reduction in average tumor volume at day 22 ([1]; 20 μg intratumoral): significant reduction in average tumor volume; reduction in average tumor volume at day 22 ([1]; 200 μg intratumoral): significant reduction in average tumor volume
5 | Ac-KLSVFAIKGSKLSVFAIK-NH2 [04-004-N001] | – | – | – | reduction in average tumor volume at day 22 ([1]; 20 μg intratumoral): only significant for the 200 μg dosing group; reduction in average tumor volume at day 22 ([1]; 200 μg intratumoral): only significant for the 200 μg dosing group
6 | B1 | – | ~10 | 6.1 | –
7 | B2 | – | ~10 | 8.7 | –
8 | B3 | – | ~10 | 9.1 | –
9 | B4 | – | ~10 | 23.3 | –
10 | B5 | – | ~10 | 5.2 | –
